Experimental data reported in paper PMC7321154, “Pharmacokinetic Properties of ^68Ga-labelled Folic Acid Conjugates: Improvement Using HEHE Tag” (Molecules, 2020).
Numbered stars: 1 amine (or outer) side, 2 acyl side, 3 side chain; on linkers, the order of the positions; unused ones are H or OH. Peptide text beside a SMILES is read from it. * marks the point of attachment. NODAGA = O=C(O)CN1CCN(CC(=O)O)CCN(C(CCC(=O)*)C(=O)O)CC1; Pteroyl = Nc1nc2ncc(CNc3ccc(C(=O)*)cc3)nc2c(=O)[nH]1; γGlu = O=C(O)[C@H](CCC(=O)[*:2])N[*:1]

How the values were obtained:
in vitro = in vitro ADME; details: human, plasma
Experimental: The plasma stability of [^68Ga]Ga-FA-I and [^68Ga]Ga-FA-II was determined in human plasma in vitro.

in vivo [1] = test: in vivo; parameters: species or system Wistar rats; details: Wistar, rat, iv, total radioactivity
Experimental: Normal biodistribution studies were carried out in healthy Wistar rats. Animals were grouped (N = 5/group) and injected with 10−12 MBq/100 μL of each ^68Ga-NODAGA-folate conjugate into the tail vein. Nonspecific uptake in FR-positive organs (e.g., kidneys) was determined by 5 min of folic acid pre-injection (36 μM, 100 μL) in PBS pH 7.4. At preselected time points of (30, 60, 90, 120 min for rats and 30, 60 min for mice) animals were sacrificed. The organs of interest were collected, blotted dry, weighed, and counted using a WIZARD^2 automatic γ-counter (PerkinElmer). The results are expressed as the percentage of injected activity dose per gram (% ID/g ± SD) for each organ/tissue.

in vivo [2] = test: in vivo; parameters: species or system BALB/c nude mice; details: female, BALB/c nude, mouse, iv, total radioactivity; for tissue to tissue ratio at 0.5 h / tissue to tissue ratio at 1 h: Differential uptake ratio (DUR)
Experimental: For the experimental tumor models athymic female BALB/c nude mice (4−5 weeks old, 18−20 g) were subcutaneously inoculated in the right flank with suspended 2 × 10^6 KB cells (150 μL, Opti-MEM (Gibco, Thermo Fisher Scientific, Waltham, MA, USA) and 50% Matrigel (Becton Dickinson, Franklin Lakes, NJ, USA). Tumors were allowed to grow for 12−16 days (tumor weight 500−900 mg). Animals were grouped (N = 3–5/group) and injected with 10−12 MBq/100 μL of each ^68Ga-NODAGA-folate conjugate into the tail vein. At preselected time points of (30, 60, 90, 120 min for rats and 30, 60 min for mice) animals were sacrificed. The organs of interest were collected, blotted dry, weighed, and counted using a WIZARD^2 automatic γ-counter (PerkinElmer). The results are expressed as the percentage of injected activity dose per gram (% ID/g ± SD) for each organ/tissue.

Nc1nc2ncc(CNc3ccc(C(=O)N[C@@H](CCC(=O)N[C@@H](CCCCNC(=O)CCC(C(=O)O)N4CCN(CC(=O)O)CCN(CC(=O)O)CC4)C(=O)N[C@@H](Cc4c[nH]cn4)C(=O)N[C@@H](CCC(=O)O)C(=O)N[C@@H](Cc4c[nH]cn4)C(=O)N[C@@H](CCC(=O)O)C(=O)O)C(=O)O)cc3)nc2c(=O)[nH]1 (stereo partly shown) [[^68Ga]Ga-FA-II, metal not drawn] ({Pteroyl-γGlu}-K(NODAGA)HEHE-OH)
remaining at 3 h (in vitro): > 99% | tissue uptake at 1 h (in vivo [1]): 4.27 ± 0.93 %ID/g | tissue uptake at 0.5 h (in vivo [1]; accumulation in blood): 0.28 ± 0.03 %ID/g | tissue uptake at 1 h (in vivo [1]; accumulation in blood): 0.22 ± 0.06 %ID/g | tissue uptake at 1.5 h (in vivo [1]; accumulation in blood): 0.09 ± 0.01 %ID/g | tissue uptake at 2 h (in vivo [1]; accumulation in blood): 0.06 ± 0.02 %ID/g | tissue uptake at 0.5 h (in vivo [1]; accumulation in brain): 0.04 ± 0.01 %ID/g | tissue uptake at 1 h (in vivo [1]; accumulation in brain): 0.02 ± 0.01 %ID/g | tissue uptake at 1.5 h (in vivo [1]; accumulation in brain): 0.02 ± 0.01 %ID/g | tissue uptake at 2 h (in vivo [1]; accumulation in brain): 0.01 ± 0.01 %ID/g | tissue uptake at 0.5 h (in vivo [1]; accumulation in heart): 0.27 ± 0.07 %ID/g | tissue uptake at 1 h (in vivo [1]; accumulation in heart): 0.16 ± 0.08 %ID/g | tissue uptake at 1.5 h (in vivo [1]; accumulation in heart): 0.1 ± 0.01 %ID/g | tissue uptake at 2 h (in vivo [1]; accumulation in heart): 0.08 ± 0.01 %ID/g | tissue uptake at 0.5 h (in vivo [1]; accumulation in kidneys): 4.03 ± 0.94 %ID/g | tissue uptake at 1 h (in vivo [1]; accumulation in kidneys): 4.64 ± 1.8 %ID/g | tissue uptake at 1.5 h (in vivo [1]; accumulation in kidneys): 4.42 ± 1.27 %ID/g | tissue uptake at 2 h (in vivo [1]; accumulation in kidneys): 4.34 ± 0.18 %ID/g | tissue uptake at 0.5 h (in vivo [1]; accumulation in liver): 0.18 ± 0.06 %ID/g | tissue uptake at 1 h (in vivo [1]; accumulation in liver): 0.12 ± 0.06 %ID/g | tissue uptake at 1.5 h (in vivo [1]; accumulation in liver): 0.07 ± 0.01 %ID/g | tissue uptake at 2 h (in vivo [1]; accumulation in liver): 0.05 ± 0.01 %ID/g | tissue uptake at 0.5 h (in vivo [1]; accumulation in lungs): 0.28 ± 0.06 %ID/g | tissue uptake at 1 h (in vivo [1]; accumulation in lungs): 0.24 ± 0.07 %ID/g | tissue uptake at 1.5 h (in vivo [1]; accumulation in lungs): 0.12 ± 0.02 %ID/g | tissue uptake at 2 h (in vivo [1]; accumulation in lungs): 0.11 ± 0.02 %ID/g | tissue uptake at 1 h (in vivo [1]; accumulation in muscle): 0.06 ± 0.01 %ID/g | tissue uptake at 1.5 h (in vivo [1]; accumulation in muscle): 0.04 ± 0.01 %ID/g | tissue uptake at 2 h (in vivo [1]; accumulation in muscle): 0.04 ± 0.01 %ID/g | tissue to tissue ratio at 0.5 h (in vivo [2]; Tumor-to-blood): 1.6 ± 0.5 | tissue to tissue ratio at 1 h (in vivo [2]; Tumor-to-blood): 6.1 ± 2.5 | tissue to tissue ratio at 0.5 h (in vivo [2]; Tumor-to-kidneys): 0.39 ± 0.18 | tissue to tissue ratio at 1 h (in vivo [2]; Tumor-to-kidneys): 0.79 ± 0.28 | tissue to tissue ratio at 0.5 h (in vivo [2]; Tumor-to-muscle): 7.1 ± 2.8 | tissue to tissue ratio at 1 h (in vivo [2]; Tumor-to-muscle): 28.9 ± 13.7 | tissue uptake at 0.5 h (in vivo [2]; accumulation in bladder): 1.46 ± 0.53 %ID/g | tissue uptake at 1 h (in vivo [2]; accumulation in bladder): 0.96 ± 0.46 %ID/g | tissue uptake at 0.5 h (in vivo [2]; accumulation in brain): 0.09 ± 0.03 %ID/g | tissue uptake at 1 h (in vivo [2]; accumulation in brain): 0.1 ± 0.03 %ID/g | tissue uptake at 0.5 h (in vivo [2]; accumulation in intestines): 0.46 ± 0.15 %ID/g | tissue uptake at 1 h (in vivo [2]; accumulation in intestines): 0.45 ± 0.13 %ID/g | tissue uptake at 0.5 h (in vivo [2]; accumulation in kidneys): 4.47 ± 0.97 %ID/g | tissue uptake at 1 h (in vivo [2]; accumulation in kidneys): 4.64 ± 0.26 %ID/g | tissue uptake at 0.5 h (in vivo [2]; accumulation in liver): 0.51 ± 0.13 %ID/g | tissue uptake at 1 h (in vivo [2]; accumulation in liver): 0.27 ± 0.08 %ID/g | tissue uptake at 0.5 h (in vivo [2]; accumulation in muscle): 0.24 ± 0.04 %ID/g
